Holding throughout (experiment): EC50 of free RNA motif oligo competing protein binding to immobilised probe
One series has as its target T1, PARP12 (UniProt Q9H0J9).
T1 sequence: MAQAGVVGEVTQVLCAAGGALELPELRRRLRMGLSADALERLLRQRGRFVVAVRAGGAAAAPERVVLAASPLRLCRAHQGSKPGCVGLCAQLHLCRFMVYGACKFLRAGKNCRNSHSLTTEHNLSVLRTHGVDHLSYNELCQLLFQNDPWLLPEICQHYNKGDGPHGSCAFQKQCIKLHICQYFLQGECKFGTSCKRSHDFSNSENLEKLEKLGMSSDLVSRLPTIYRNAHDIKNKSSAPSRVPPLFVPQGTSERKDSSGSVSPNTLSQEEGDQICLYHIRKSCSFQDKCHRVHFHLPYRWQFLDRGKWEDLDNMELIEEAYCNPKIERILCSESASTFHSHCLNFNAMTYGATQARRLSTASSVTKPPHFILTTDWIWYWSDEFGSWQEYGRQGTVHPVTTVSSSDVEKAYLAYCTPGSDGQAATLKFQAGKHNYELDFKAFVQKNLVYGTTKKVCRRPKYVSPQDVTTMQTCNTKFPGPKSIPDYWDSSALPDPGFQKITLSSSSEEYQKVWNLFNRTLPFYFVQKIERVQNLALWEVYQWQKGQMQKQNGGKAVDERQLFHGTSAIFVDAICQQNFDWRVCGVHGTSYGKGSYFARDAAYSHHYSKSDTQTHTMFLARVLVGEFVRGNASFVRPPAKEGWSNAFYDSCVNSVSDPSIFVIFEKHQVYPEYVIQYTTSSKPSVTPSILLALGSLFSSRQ
In short, it runs like this: (§1)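 HEK293-FT lysate (2.5 mg protein/well) was treated with free RNA oligos (0 nM to 30 μM) for 1 h at 4°C, then with the same oligos on NHS-Sepharose beads for 30 min at 4°C. Bound proteins were quantified by label-free LC-MS/MS relative to the control. EC50 came from a four-parameter log-logistic fit, and Kd is EC50 times a protein-dependent depletion factor.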

The target of another series is T2, CPSF7 (UniProt Q8N684).
T2 sequence: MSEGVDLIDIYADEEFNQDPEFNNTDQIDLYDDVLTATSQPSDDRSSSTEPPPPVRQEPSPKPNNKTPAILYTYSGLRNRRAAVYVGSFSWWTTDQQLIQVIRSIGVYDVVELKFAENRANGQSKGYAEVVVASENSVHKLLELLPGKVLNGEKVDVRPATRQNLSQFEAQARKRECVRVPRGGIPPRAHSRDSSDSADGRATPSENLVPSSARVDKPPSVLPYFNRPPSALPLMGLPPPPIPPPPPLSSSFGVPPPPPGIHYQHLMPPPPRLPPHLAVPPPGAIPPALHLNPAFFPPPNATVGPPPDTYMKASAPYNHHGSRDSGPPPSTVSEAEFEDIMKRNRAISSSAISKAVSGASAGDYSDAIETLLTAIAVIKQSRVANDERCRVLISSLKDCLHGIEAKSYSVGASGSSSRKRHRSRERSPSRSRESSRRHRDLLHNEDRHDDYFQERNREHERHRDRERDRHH
A digest of the protocol:
as §1

The next series has as its target P4HA1 (UniProt P13674). In short, it runs like this:
as §1

A further series deals with T3, DDX21 (UniProt Q9NR30).
T3 sequence: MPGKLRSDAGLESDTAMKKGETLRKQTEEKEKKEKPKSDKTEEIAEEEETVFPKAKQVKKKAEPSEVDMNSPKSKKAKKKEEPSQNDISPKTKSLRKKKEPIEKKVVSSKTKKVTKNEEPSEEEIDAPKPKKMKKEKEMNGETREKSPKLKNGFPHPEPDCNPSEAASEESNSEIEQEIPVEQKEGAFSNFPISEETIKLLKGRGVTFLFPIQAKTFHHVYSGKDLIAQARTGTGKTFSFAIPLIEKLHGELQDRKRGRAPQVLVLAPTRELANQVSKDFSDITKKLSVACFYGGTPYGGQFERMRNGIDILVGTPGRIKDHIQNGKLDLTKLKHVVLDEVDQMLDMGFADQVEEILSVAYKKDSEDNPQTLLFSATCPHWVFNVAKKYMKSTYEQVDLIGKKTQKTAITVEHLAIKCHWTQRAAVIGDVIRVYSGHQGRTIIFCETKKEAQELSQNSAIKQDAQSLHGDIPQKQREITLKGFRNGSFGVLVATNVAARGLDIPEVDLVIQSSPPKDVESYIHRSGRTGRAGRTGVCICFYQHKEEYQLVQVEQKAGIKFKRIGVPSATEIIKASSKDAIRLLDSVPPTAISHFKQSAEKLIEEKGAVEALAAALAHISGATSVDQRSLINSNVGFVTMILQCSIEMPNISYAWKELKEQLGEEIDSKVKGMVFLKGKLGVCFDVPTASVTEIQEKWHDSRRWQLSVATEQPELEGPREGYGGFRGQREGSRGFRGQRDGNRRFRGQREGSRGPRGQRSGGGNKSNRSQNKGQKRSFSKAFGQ
A digest of the protocol: as §1

The target of another series is CNBP (UniProt P62633). A digest of the protocol: as §1
Sequence of CNBP (P62633 whole entry): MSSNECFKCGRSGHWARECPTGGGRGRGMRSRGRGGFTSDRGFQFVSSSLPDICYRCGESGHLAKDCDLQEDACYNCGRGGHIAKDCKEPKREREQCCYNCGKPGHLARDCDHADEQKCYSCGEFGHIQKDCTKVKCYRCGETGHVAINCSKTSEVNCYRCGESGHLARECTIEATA

Sequence of P4HA1 (P13674 whole entry): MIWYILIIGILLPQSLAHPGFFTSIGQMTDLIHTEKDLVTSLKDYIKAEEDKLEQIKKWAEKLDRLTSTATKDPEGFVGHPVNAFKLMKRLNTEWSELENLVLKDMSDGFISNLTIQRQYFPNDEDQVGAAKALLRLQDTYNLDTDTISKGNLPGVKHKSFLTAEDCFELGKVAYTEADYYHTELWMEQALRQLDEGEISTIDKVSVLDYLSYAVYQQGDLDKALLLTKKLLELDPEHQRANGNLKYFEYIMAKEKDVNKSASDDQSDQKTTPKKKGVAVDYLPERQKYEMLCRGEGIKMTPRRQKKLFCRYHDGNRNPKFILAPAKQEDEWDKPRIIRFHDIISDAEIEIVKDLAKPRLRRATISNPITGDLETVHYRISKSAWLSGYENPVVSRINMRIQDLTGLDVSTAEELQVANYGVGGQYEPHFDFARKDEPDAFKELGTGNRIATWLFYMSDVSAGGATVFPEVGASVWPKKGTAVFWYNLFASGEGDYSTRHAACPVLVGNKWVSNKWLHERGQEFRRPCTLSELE

For AAUAAA, the concentration giving a half-maximal response (EC50) (as a rule, the concentration needed to bring the measured effect to its halfway point) in the series with PARP12 is 11.2 µM; in the series with CPSF7, 8.82 µM; in the series with P4HA1, 0.0656 µM.

Consider CUGUCCU, for which, in the series with DDX21, the EC50 worked out at 0.116 µM. That is a sub-micromolar value.

UAUUUAU: in the series with CNBP, the EC50 came out at 2.24 µM.

The values are drawn from the supplement of paper PMC6379048.
